Here are results for one substance from publication PMC6233088.

The target of this experiment is RGA5_S (RGA5 982-1116), small C-terminal fragment of RGA5 carrying the HMA domain (rice) (UniProt F7J0N2). In words: SEC.
Chain of UniProt F7J0N2 (F7J0N2 982-1116): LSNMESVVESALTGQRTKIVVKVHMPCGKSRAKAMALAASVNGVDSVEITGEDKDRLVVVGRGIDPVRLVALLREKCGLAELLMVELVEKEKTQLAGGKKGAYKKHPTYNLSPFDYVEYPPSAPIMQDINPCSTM

Usually stoichiometry N stands for the number of molecules, sites or subunits per partner or assembly. “dSP-AVR1-CO39 (AVR1-CO39 with its signal peptide deleted), wild type, recombinant (natural protein)”: the stoichiometry N turned out to be 1.
